# Measured values: the RNAGym collection of RNA variant scans (doi:10.1093/molbev/msab373)
# B1: Azoarcus group I ribozyme (parent)
# chain: GUGCCUUGCGCCGGGAAACCACGCAAGGGAUGGUGUCAAAUUCGGCGAAACCUAAGCGCCCGCCCGGGCGUAUGGCAACGCCGAGCCAAGCUUCGGCGCCUGCGCCGAUGAAGGUGUAGAGACUAGACGGCACCCACCUAAGGCAAACGCUAUGGUGAAGGCAUAGUCCAGGGAGUGGCGAAAGUCACACAAACCGG
# Variants of: B1
# Experiment: reverse-splicing fitness (ratio to wild type); higher = more active; in vitro selection; Mg2+ level not given
# Procedure, shortened: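 An in vitro group I ribozyme library with randomized positions was T7-transcribed and gel-purified. In triplicate, 10 pmol RNA in EPPS pH 7.5 was reacted with 50 pmoles of a 30-nt RNA substrate for 1 h at 37 °C across several added MgCl2 levels (1–48 mM), then stopped with EDTA. Products were reverse transcribed from a substrate-complementary primer, PCR-amplified and sequenced (HiSeq 4000). Fitness is a variant's read proportion after selection over that before, normalised to wild type.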
row,Variant,reverse-splicing fitness
1,GUGCCUUGCGCCGGGAAACCACGCAAGGGAUGGUGUCAAAUUCGGCGAAACCUAAGCGCCCGCCCGGGCGUAUGGCAACGCUGAGCCAAGCUUCGGCGCCUGCGCCGAUGCAGGUGUAGGGACUAGACGGCACCCACCUAAGGCUAACGUUAUGGUGAAGGCAUAGUCCAGGGAGAGGCGAAAGUCACACAAACCGG [C82U A111C A120G A145U C150U U176A],0.013
2,GUGCCUUGCGCCGGGAAACCACGCAAGGGAUGGUGUCAAAUUCGGCGAAACCUAAGCGCCCGCCCGGGCGUAUGGCAACGCUGAGCCAAGCUUCGGCGCCUGCGCCGAUGCAGGUGUAGGGACUAGACGGCACCCACCUAAGGCUAACGCUAUGGUGAAGGCAUAGUCUAGGGAGGGGCGAAAGUCACACAAACCGG [C82U A111C A120G A145U C169U U176G],0.00369
3,GUGCCUUGCGCCGGGAAACCACGCAAGGGAUGGUGUCAAAUUCGGCGAAACCUAAGCGCCCGCCCGGGCGUAUGGCAACGCUGAGCCAAGCUUCGGCGCCUGCGCCGAUGCAGGUGUAGGGACUAGACGGCACCCACCUAAGGCUAACGCUAUGGUGAAGGCAUAGUCUAGGGAGAGGCGAAAGUCACACAAACCGG [C82U A111C A120G A145U C169U U176A],0.0158
4,GUGCCUUGCGCCGGGAAACCACGCAAGGGAUGGUGUCAAAUUCGGCGAAACCUAAGCGCCCGCCCGGGCGUAUGGCAACGCUGAGCCAAGCUUCGGCGCCUGCGCCGAUGCAGGUGUAGGGACUAGACGGCACCCACCUAAGGCUAACGCUAUGGUGAAGGCAUAGUCUAGGGAGCGGCGAAAGUCACACAAACCGG [C82U A111C A120G A145U C169U U176C],0.0112
5,GUGCCUUGCGCCGGGAAACCACGCAAGGGAUGGUGUCAAAUUCGGCGAAACCUAAGCGCCCGCCCGGGCGUAUGGCAACGCUGAGCCAAGCUUCGGCGCCUGCGCCGAUGCAGGUGUAGGGACUAGACGGCACCCACCUAAGGCUAACGUUAUGGUGAAGGCAUAGUCGAGGGAGAGGCGAAAGUCACACAAACCGG [C82U A111C A120G A145U C150U C169G U176A],0.00992
6,GUGCCUUGCGCCGGGAAACCACGCAAGGGAUGGUGUCAAAUUCGGCGAAACCUAAGCGCCCGCCCGGGCGUAUGGCAACGCUGAGCCAAGCUUCGGCGCCUGCGCCGAUGCAGGUGUAGGGACUAGACGGCACCCACCUAAGGCUAACGUUAUGGUGAAGGCAUAGUCGAGGGAGCGGCGAAAGUCACACAAACCGG [C82U A111C A120G A145U C150U C169G U176C],0.0111
7,GUGCCUUGCGCCGGGAAACCACGCAAGGGAUGGUGUCAAAUUCGGCGAAACCUAAGCGCCCGCCCGGGCGUAUGGCAACGCUGAGCCAAGCUUCGGCGCCUGCGCCGAUGCAGGUGUAGGGACUAGACGGCACCCACCUAAGGCUAACGUUAUGGUGAAGGCAUAGUCGAGGGAGGGGCGAAAGUCACACAAACCGG [C82U A111C A120G A145U C150U C169G U176G],0.00453
8,GUGCCUUGCGCCGGGAAACCACGCAAGGGAUGGUGUCAAAUUCGGCGAAACCUAAGCGCCCGCCCGGGCGUAUGGCAACGCUGAGCCAAGCUUCGGCGCCUGCGCCGAUGCAGGUGUAGGGACUAGACGGCACCCACCUAAGGCUAACGUUAUGGUGAAGGCAUAGUCGAGGGAGUGGCGAAAGUCACACAAACCGG [C82U A111C A120G A145U C150U C169G],0.00846
9,GUGCCUUGCGCCGGGAAACCACGCAAGGGAUGGUGUCAAAUUCGGCGAAACCUAAGCGCCCGCCCGGGCGUAUGGCAACGCUGAGCCAAGCUUCGGCGCCUGCGCCGAUGCAGGUGUAGGGACUAGACGGCACCCACCUAAGGCUAACGUUAUGGUGAAGGCAUAGUCUAGGGAGUGGCGAAAGUCACACAAACCGG [C82U A111C A120G A145U C150U C169U],0.00803
10,GUGCCUUGCGCCGGGAAACCACGCAAGGGAUGGUGUCAAAUUCGGCGAAACCUAAGCGCCCGCCCGGGCGUAUGGCAACGCUGAGCCAAGCUUCGGCGCCUGCGCCGAUGCAGGUGUAGGGACUAGACGGCACCCACCUAAGGCUAACGCUAUGGUGAAGGCAUAGUCCAGGGAGGGGCGAAAGUCACACAAACCGG [C82U A111C A120G A145U U176G],0.00452
11,GUGCCUUGCGCCGGGAAACCACGCAAGGGAUGGUGUCAAAUUCGGCGAAACCUAAGCGCCCGCCCGGGCGUAUGGCAACGCUGAGCCAAGCUUCGGCGCCUGCGCCGAUGCAGGUGUAGGGACUAGACGGCACCCACCUAAGGCUAACGCUAUGGUGAAGGCAUAGUCCAGGGAGAGGCGAAAGUCACACAAACCGG [C82U A111C A120G A145U U176A],0.0148
12,GUGCCUUGCGCCGGGAAACCACGCAAGGGAUGGUGUCAAAUUCGGCGAAACCUAAGCGCCCGCCCGGGCGUAUGGCAACGCUGAGCCAAGCUUCGGCGCCUGCGCCGAUGCAGGUGUAGGGACUAGACGGCACCCACCUAAGGCUAACGCUAUGGUGAAGGCAUAGUCCAGGGAGCGGCGAAAGUCACACAAACCGG [C82U A111C A120G A145U U176C],0.0192
13,GUGCCUUGCGCCGGGAAACCACGCAAGGGAUGGUGUCAAAUUCGGCGAAACCUAAGCGCCCGCCCGGGCGUAUGGCAACGCUGAGCCAAGCUUCGGCGCCUGCGCCGAUGCAGGUGUAGGGACUAGACGGCACCCACCUAAGGCUAACGCUAUGGUGAAGGCAUAGUCGAGGGAGCGGCGAAAGUCACACAAACCGG [C82U A111C A120G A145U C169G U176C],0.0109
14,GUGCCUUGCGCCGGGAAACCACGCAAGGGAUGGUGUCAAAUUCGGCGAAACCUAAGCGCCCGCCCGGGCGUAUGGCAACGCUGAGCCAAGCUUCGGCGCCUGCGCCGAUGCAGGUGUAGGGACUAGACGGCACCCACCUAAGGCUAACGCUAUGGUGAAGGCAUAGUCGAGGGAGAGGCGAAAGUCACACAAACCGG [C82U A111C A120G A145U C169G U176A],0.00938
15,GUGCCUUGCGCCGGGAAACCACGCAAGGGAUGGUGUCAAAUUCGGCGAAACCUAAGCGCCCGCCCGGGCGUAUGGCAACGCUGAGCCAAGCUUCGGCGCCUGCGCCGAUGCAGGUGUAGGGACUAGACGGCACCCACCUAAGGCUAACGCUAUGGUGAAGGCAUAGUCGAGGGAGGGGCGAAAGUCACACAAACCGG [C82U A111C A120G A145U C169G U176G],0.00395
